Measurements from paper PMC8643467, “Appearance of peanut agglutinin in the blood circulation after peanut ingestion promotes endothelial secretion of metastasis-promoting cytokines” (Carcinogenesis, 2021).

Target: MCAM (CD146), melanoma cell adhesion molecule (human (endogenous in HUVECs), UniProt P43121 24-646)
Test: cell-based or functional assay

B1: Peanut agglutinin (PNA), agarose-conjugated (natural protein, Arachis hypogaea, UniProt P02872 24-273, looked up)
chain: AETVSFNFNSFSEGNPAINFQGDVTVLSNGNIQLTNLNKVNSVGRVLYAMPVRIWSSATGNVASFLTSFSFEMKDIKDYDPADGIIFFIAPEDTQIPAGSIGGGTLGVSDTKGAGHFVGVEFDTYSNSEYNDPPTDHVGIDVNSVDSVKTVPWNSVSGAVVKVTVIYDSSTKTLSVAVTNDNGDITTIAQVVDLKAKLPERVKFGFSASGSLGGRQIHLIRSWSFTSTLITTTRRSIDNNEKKIMNMASA
B1 was tested, and the “IL-6 secretion from HUVECs by ELISA, dose series of PNA, highest after 24 h with 8 μg/ml PNA” value was 3 fold and the “MCP-1 secretion from HUVECs by ELISA, dose series of PNA, highest after 24 h with 8 μg/ml PNA” value was 13 fold.
